Test results taken from patent publication US20210145935A1.

What was measured:
[1] = target: H1N1 pseudotyped lentiviral particles (H1 and N1 from swine H1N1 A/California/04/09) (influenza A virus H1N1 A/California/04/09); assay: cell-based or functional assay
[2] = target: H3N2 pseudotyped lentiviral particles (H3 from A/Denmark/70/03, N2 from A/Texas/50/2012) (influenza A virus H3N2 A/Denmark/70/03; influenza A virus H3N2 A/Texas/50/2012); assay: cell-based or functional assay

B1: human complement factor H purified from human plasma, P08603 19-1231 (protein)
chain: EDCNELPPRRNTEILTGSWSDQTYPEGTQAIYKCRPGYRSLGNVIMVCRKGEWVALNPLRKCQKRPCGHPGDTPFGTFTLTGGNVFEYGVKAVYTCNEGYQLLGEINYRECDTDGWTNDIPICEVVKCLPVTAPENGKIVSSAMEPDREYHFGQAVRFVCNSGYKIEGDEEMHCSDDGFWSKEKPKCVEISCKSPDVINGSPISQKIIYKENERFQYKCNMGYEYSERGDAVCTESGWRPLPSCEEKSCDNPYIPNGDYSPLRIKHRTGDEITYQCRNGFYPATRGNTAKCTSTGWIPAPRCTLKPCDYPDIKHGGLYHENMRRPYFPVAVGKYYSYYCDEHFETPSGSYWDHIHCTQDGWSPAVPCLRKCYFPYLENGYNQNYGRKFVQGKSIDVACHPGYALPKAQTTVTCMENGWSPTPRCIRVKTCSKSSIDIENGFISESQYTYALKEKAKYQCKLGYVTADGETSGSITCGKDGWSAQPTCIKSCDIPVFMNARTKNDFTWFKLNDTLDYECHDGYESNTGSTTGSIVCGYNGWSDLPICYERECELPKIDVHLVPDRKKDQYKVGEVLKFSCKPGFTIVGPNSVQCYHFGLSPDLPICKEQVQSCGPPPELLNGNVKEKTKEEYGHSEVVEYYCNPRFLMKGPNKIQCVDGEWTTLPVCIVEESTCGDIPELEHGWAQLSSPPYYYGDSVEFNCSESFTMIGHRSITCIHGVWTQLPQCVAIDKLKKCKSSNLIILEEHLKNKKEFDHNSNIRYRCRGKEGWIHTVCINGRWDPEVNCSMAQIQLCPPPPQIPNSHNMTTTLNYRDGEKVSVLCQENYLIQEGEEITCKDGRWQSIPLCVEKIPCSQPPQIEHGTINSSRSSQESYAHGTKLSYTCEGGFRISEENETTCYMGKWSSPPQCEGLPCKSPPEISHGVVAHMSDSYQYGEEVTYKCFEGFGIDGPAIAKCLGEKWSHPPSCIKTDCLSLPSFENAIPMGEKKDVYKAGEQVTYTCATYYKMDGASNVTCINSRWTGRPTCRDTSCVNPPTVQNAYIVSRQMSKYPSGERVRYQCRSPYEMFGDEEVMCLNGNWTEPPQCKDSTGKCGPPPPIDNGDITSFPLSVYAPASSVEYQCQNLYQLEGNKRITCRNGQWSEPPKCLHPCVISREIMENYNIALRWTAKQKLYSRTGESVEFVCKRGYRLSSRSHTLRTTCWDGKLEYPTCAKR
B1 was tested, and the luciferase reporter activity of transduced MDCK cells, 40 µg/ml protein [1] was 25 % reduction and the luciferase reporter activity of transduced MDCK cells, 40 µg/ml protein [2] was 50 % increase.
